{"source": "patent US20230414619", "proteins": {"B1": {"name": "HA-tagged G9a (protein)", "chain": "MAAAAGAAAAAAAEGEAPAEMGALLLEKETRGATERVHGSLGDTPRSEETLPKATPDSLEPAGPSSPASVTVTVGDEGADTPVGATPLIGDESENLEGDGDLRGGRILLGHATKSFPSSPSKGGSCPSRAKMSMTGAGKSPPSVQSLAMRLLSMPGAQGAAAAGSEPPPATTSPEGQPKVHRARKTMSKPGNGQPPVPEKRPPEIQHFRMSDDVHSLGKVTSDLAKRRKLNSGGGLSEELGSARRSGEVTLTKGDPGSLEEWETVVGDDFSLYYDSYSVDERVDSDSKSEVEALTEQLSEEEEEEEEEEEEEEEEEEEEEEEEDEESGNQSDRSGSSGRRKAKKKWRKDSPWVKPSRKRRKREPPRAKEPRGVNGVGSSGPSEYMEVPLGSLELPSEGTLSPNHAGVSNDTSSLETERGFEELPLCSCRMEAPKIDRISERAGHKCMATESVDGELSGCNAAILKRETMRPSSRVALMVLCETHRARMVKHHCCPGCGYFCTAGTFLECHPDFRVAHRFHKACVSQLNGMVFCPHCGEDASEAQEVTIPRGDGVTPPAGTAAPAPPPLSQDVPGRADTSQPSARMRGHGEPRRPPCDPLADTIDSSGPSLTLPNGGCLSAVGLPLGPGREALEKALVIQESERRKKLRFHPRQLYLSVKQGELQKVILMLLDNLDPNFQSDQQSKRTPLHAAAQKGSVEICHVLLQAGANINAVDKQQRTPLMEAVVNNHLEVARYMVQRGGCVYSKEEDGSTCLHHAAKIGNLEMVSLLLSTGQVDVNAQDSGGWTPIIWAAEHKHIEVIRMLLTRGADVTLTDNEENICLHWASFTGSAAIAEVLLNARCDLHAVNYHGDTPLHIAARESYHDCVLLFLSRGANPELRNKEGDTAWDLTPERSDVWFALQLNRKLRLGVGNRAIRTEKIICRDVARGYENVPIPCVNGVDGEPCPEDYKYISENCETSTMNIDRNITHLQHCTCVDDCSSSNCLCGQLSIRCWYDKDGRLLQEFNKIEPPLIFECNQACSCWRNCKNRVVQSGIKVRLQLYRTAKMGWGVRALQTIPQGTFICEYVGELISDAEADVREDDSYLFDLDNKDGEVYCIDARYYGNISRFINHLCDPNIIPVRVFMLHQDLRFPRIAFFSSRDIRTGEELGFDYGDRFWDIKSKYFTCQCGSEKCKHSAEAIALEQSRLARLDPHPELLPELGSLPPVNT"}}, "biological_target": "Flag-tagged METTL3, Q86U44", "sequence (Q86U44 whole entry)": "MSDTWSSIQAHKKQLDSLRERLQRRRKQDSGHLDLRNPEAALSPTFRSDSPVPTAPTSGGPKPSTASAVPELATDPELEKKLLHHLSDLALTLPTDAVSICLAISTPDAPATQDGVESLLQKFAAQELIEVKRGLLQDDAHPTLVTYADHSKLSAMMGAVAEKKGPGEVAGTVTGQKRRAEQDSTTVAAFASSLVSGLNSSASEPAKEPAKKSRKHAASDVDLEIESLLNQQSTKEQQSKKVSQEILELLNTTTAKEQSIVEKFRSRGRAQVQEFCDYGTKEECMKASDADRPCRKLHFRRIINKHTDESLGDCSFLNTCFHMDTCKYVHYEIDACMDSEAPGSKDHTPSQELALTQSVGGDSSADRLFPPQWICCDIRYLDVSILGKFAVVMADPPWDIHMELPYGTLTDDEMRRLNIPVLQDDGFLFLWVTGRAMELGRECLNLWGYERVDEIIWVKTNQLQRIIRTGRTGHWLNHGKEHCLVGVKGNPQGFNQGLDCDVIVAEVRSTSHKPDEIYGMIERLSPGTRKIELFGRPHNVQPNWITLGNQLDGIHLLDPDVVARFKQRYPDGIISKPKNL", "data": [{"protein": "B1", "values": [{"measurement": "LC-MS/MS of tryptic digests of Flag-METTL3: mono- or di-methyl-lysine (Kme) sites", "result": "four mono- or di-methyl-lysine (Kme) sites in the C-terminus of METTL3"}, {"measurement": "lysine methylation of immunoprecipitated Flag-METTL3, immunoblotting with an anti-mono- or di-methylysine antibody", "result": "METTL3 was methylated"}]}]}
